Square brackets hold non-standard residues; d marks the D form. Peptide text beside a SMILES is read from it. Dap = NC[C@H](N)C(=O)O

The target of one assay is T1, KRAS G12V (human, UniProt P01116-2 1-188, limits assumed). The assay can be described thus: cell-based or functional assay.
Conditions: not given
Ac-KLVVVGAVKGSKLVVVGAVK-NH2 [pept-in 04-014-N001]: the “Normalised viability NCI-H441 4 days of exposure to 25 µM (%)” value came to 9.1%.
The same measure, in the same setting: under Ac-KLSVFAIKGSKLSVFAIK-NH2 [pept-in 04-004-N001] stands 6.1%.
Same read-out and setting: for Ac-KVVVGAVGKGSKVVVGAVGK-NH2 [pept-in 04-015-N001] the value was 23.3%.
On the same count and under the same terms, for Ac-KVVVGAVKGSKVVVGAVK-NH2 [pept-in 04-006-N001] the value was 8.7%.
As for Ac-KVVVGAVGVGKGSKVVVGAVGVGK-NH2 [pept-in 04-033-N001], the “Normalised viability NCI-H441 4 days of exposure to 25 µM (%)” value was found to be 5.2%.

The next assay addresses T1, KRAS G12V. The experiment in a line: cell-based or functional assay.
Conditions: not given
This is another data set of the same source.
In the case of Ac-KLVVVGAVKGSKLVVVGAVK-NH2 [pept-in 04-014-N001], the “IC50 on viability of adherent NCI-H441 cells, CellTiter Glo, 3 days” value (from here on “IC50 on viability”) is around 10 µM.
Ac-KLSVFAIKGSKLSVFAIK-NH2 [pept-in 04-004-N001]: the “IC50 on viability” value was around 10 µM and the “decrease in viability of NCI-H441 suspension spheroids, 25 µM, 5 days, CellTiter Glo 3D” value worked out at 75%.
For Ac-KVVVGAVGKGSKVVVGAVGK-NH2 [pept-in 04-015-N001], in that order: around 10 µM and at least 75%.
On to Ac-KVVVGAVKGSKVVVGAVK-NH2 [pept-in 04-006-N001], for which the “IC50 on viability” value is around 10 µM and the “decrease in viability of NCI-H441 suspension spheroids, 25 µM, 5 days, CellTiter Glo 3D” value is at least 75%.
For Ac-KVVVGAVGVGKGSKVVVGAVGVGK-NH2 [pept-in 04-033-N001], in that order: around 10 µM and at least 75%.

The target of the next assay is T1, KRAS G12V. The experiment in a line: cell-based or functional assay.
Conditions: not given
This is another data set of the same source.
For Ac-KLSVFAIKKLSVFAIK-NH2 [pept-in 04-004-N016], the “IC50 on cell viability, NCI-H441 suspension spheroids, CellTiter Glo 3D, 5 days” value (from here on “IC50 on cell viability”) turned out to be 45.9 µM.
As to Ac-KVVVGAVKGSKVVVGAVA-NH2 [pept-in 04-006-N059], the “IC50 on cell viability” value is 15.7 µM.
On the same count and under the same terms, for Ac-AVVVGAVKGSKVVVGAVK-NH2 [pept-in 04-006-N044] the value was 5.3 µM; for Ac-KVVVGAVKGAKVVVGAVK-NH2 [pept-in 04-006-N052], 30.6 µM.
In the case of Ac-AVVVGAVKGSAVVVGAVK-NH2 [pept-in 04-006-N060], the “IC50 on cell viability” value was 31.7 µM.
Same read-out and setting: under Ac-KVVVGAVGVGKKVVVGAVGVGK-NH2 [pept-in 04-033-N007] stands 13.1 µM.
With Ac-KVVVGAVAGSKVVVGAVA-NH2 [pept-in 04-006-N066], the “IC50 on cell viability” value was 25.3 µM.
The same measure, in the same setting: for Ac-KVVVGAVAGSKVVVGAVK-NH2 [pept-in 04-006-N050] the value was 5.7 µM; for Ac-KVVVGAVKASKVVVGAVK-NH2 [pept-in 04-006-N051], 10.4 µM.
Turning to Ac-KVVVGAVGKFFKVVVGAVGK-NH2 [pept-in 04-015-N064], the “IC50 on cell viability” value was found to be 48.9 µM.
On to Ac-KVVVGAVKGSAVVVGAVK-NH2 [pept-in 04-006-N053], for which the “IC50 on cell viability” value was determined as 21.6 µM.
The same measure, in the same setting: under Ac-KVVVGAVGKGFKVVVGAVGK-NH2 [pept-in 04-015-N063] stands 38.7 µM; under Ac-AVVVGAVAGSKVVVGAVK-NH2 [pept-in 04-006-N082], 18.2 µM.

The next assay has as its system NCI-H441 lung adenocarcinoma cells (suspension spheroid cultures).
Test: not given
Format: cell-based, human.
Conditions: not given
On to `CC(=O)N[C@@H](CCCCN)C(=O)N[C@H](C(=O)N[C@H](C(=O)N[C@H](C(=O)NCC(=O)N[C@@H](C)C(=O)N[C@H](C(=O)N[C@@H](CCCCN)C(=O)NCC(=O)N[C@@H](CO)C(=O)N[C@@H](C)C(=O)N[C@H](C(=O)N[C@H](C(=O)N[C@H](C(=O)NCC(=O)N[C@@H](C)C(=O)N[C@H](C(=O)N[C@@H](CCCCN)C(N)=O)C(C)C)C(C)C)C(C)C)C(C)C)C(C)C)C(C)C)C(C)C)C(C)C` [04-006-N053], for which the IC50 was 21.6 µM.
As for `CC(=O)N[C@@H](CCCCN)C(=O)N[C@H](C(=O)N[C@H](C(=O)N[C@H](C(=O)NCC(=O)N[C@@H](C)C(=O)N[C@H](C(=O)NCC(=O)N[C@@H](CCCCN)C(=O)NCC(=O)N[C@@H](Cc1ccccc1)C(=O)N[C@@H](CCCCN)C(=O)N[C@H](C(=O)N[C@H](C(=O)N[C@H](C(=O)NCC(=O)N[C@@H](C)C(=O)N[C@H](C(=O)NCC(=O)N[C@@H](CCCCN)C(N)=O)C(C)C)C(C)C)C(C)C)C(C)C)C(C)C)C(C)C)C(C)C)C(C)C` [04-015-N063], the IC50 worked out at 38.7 µM.
For the molecule `CC(=O)N[C@@H](CN)C(=O)N[C@H](C(=O)N[C@H](C(=O)N[C@H](C(=O)NCC(=O)N[C@@H](C)C(=O)N[C@H](C(=O)NCC(=O)N[C@H](C(=O)NCC(=O)N[C@@H](CCCCN)C(=O)NCC(=O)N[C@@H](CO)C(=O)N[C@@H](CCCCN)C(=O)N[C@@H](Cc1c[nH]c2ccccc12)C(=O)N[C@H](C(=O)NCC(=O)N[C@@H](C)C(=O)N[C@H](C(=O)NCC(=O)N[C@H](C(=O)NCC(=O)N[C@@H](CN)C(N)=O)C(C)C)C(C)C)C(C)C)C(C)C)C(C)C)C(C)C)C(C)C)C(C)C` [04-033-N022] (Ac-[Dap]VVVGAVGVGKGSKWVGAVGVG[Dap]-NH2), 5 µM corresponded to half-maximal inhibition (IC50).
Ac-AVVVGAVAGSKVVVGAVK-NH2 [04-006-N082] came in with an IC50 of 18.2 µM.
The same measure, in the same setting: for Ac-AVVVGAVKGSAVVVGAVK-NH2 [04-006-N060] the value was 31.7 µM; for Ac-AVVVGAVKGSKVVVGAVK-NH2 [04-006-N044], 5.3 µM; for Ac-KLSVFAIKKLSVFAIK-NH2 [04-004-N016], 45.9 µM.
The same measure, in the same setting: under Ac-KVVVGAVAGSKVVVGAVK-NH2 [04-006-N050] stands 5.7 µM; under “Ac-KVVVGAVGKFFKVVVGAVGK-NH2 [04-015-N064]”, 48.9 µM.
The same measure, in the same setting: under “Ac-KVVVGAVGVGKKVVVGAVGVGK-NH2 [04-033-N007]” stands 13.1 µM.
Consider Ac-KVVVGAVKASKVVVGAVK-NH2 [04-006-N051], for which the IC50 was determined as 10.4 µM.
As for Ac-KVVVGAVKGAKVVVGAVK-NH2 [04-006-N052], the IC50 came out at 30.6 µM. This IC50 lies about 2.9-fold higher than the previous one.

Still in this assay, the particulars now being: 25 μM, 5 days of exposure.
For “Ac-KLVVVGAVKGSKLVVVGAVK-NH2 [04-014-N001]”, the “activity in the spheroid setting” value is “did not display activity”.

By IC50 is commonly meant the point on the concentration scale where inhibition reaches its midpoint.

Values taken from US20230090247A1, “MOLECULES TARGETING RAS PROTEIN” (AELIN THERAPEUTICS, priority 2020, published 2023).
